In article PMC12959773 (Protein & Cell, 2025):

Columns and labels:
[1] = substrate: N[C@@H](CSSC[C@H](N)C(=O)O)C(=O)O; assay: cells, lysate or membranes; type: cell-based, Homo sapiens; settings: cellular transport (Vmax given per cell)
[2] = target: the molecule itself; assay: cryo-EM structure; apo state; SLC7A13 and SLC3A1 co-expressed in Expi293 cells, complex purified by affinity purification and SEC; overall resolution 2.64 Å
[3] = substrate: N[C@@H](CSSC[C@H](N)C(=O)O)C(=O)O; assay: cells, lysate or membranes; settings: cellular transport (Vmax given per cell)

| Protein | Km [3] | also measured |
| --- | --- | --- |
| SLC7A13-SLC3A1 complex (Homo sapiens) (protein, heterodimeric light/heavy chain transporter, dimer of heterodimers; ectopically expressed in HEK293T / HEK293 cells (Expi293 for cryo-EM); with Amino acid transporter heavy chain SLC3A1) MDRGEKIQLKRVFGYWWGTSFLLINIIGAGIFVSPKGVLAYSCMNVGVSLCVWAGCAILAMTSTLCSAEISISFPCSGAQYYFLKRYFGSTVAFLNLWTSLFLGSGVVAGQALLLAEYSIQPFFPSCSVPKLPKKCLALAMLWIVGILTSRGVKEVTWLQIASSVLKVSILSFISLTGVVFLIRGKKENVERFQNAFDAELPDISHLIQAIFQGYFAYSGGACFTLIAGELKKPRTTIPKCIFTALPLVTVVYLLVNISYLTVLTPREILSSDAVAITWADRAFPSLAWIMPFAISTSLFSNLLISIFKSSRPIYLASQEGQLPLLFNTLNSHSSPFTAVLLLVTLGSLAIILTSLIDLINYIFFTGSLWSILLMIGILRRRYQEPNLSIPYKVFLSFPLATIVIDVGLVVIPLVKSPNVHYVYVLLLVLSGLLFYIPLIHFKIRLAWFEKMTCYLQLLFNICLPDVSEE | – | Km [1]: 126.5 ± 33.25 µmol/L |
| SLC3A1 (natural protein, human, five glycosylation sites in the extracellular domain, SLC3A1 (rBAT), human; heavy chain subunit: small N-terminal cytoplasmic region, a single TM and a large extracellular domain; Two copies stand in the solved hetero-tetramer; also called rBAT; heavy chain of the SLC7A13-SLC3A1 cystine transporter) AEDKSKRDSIEMSMKGCQTNNGFVHNEDILEQTPDPGSSTDNLKHSTRGILGSQEPDFKGVQPYAGMPKEVLFQFSGQARYRIPREILFWLTVASVLVLIAATIAIIALSPKCLDWWQEGPMYQIYPRSFKDSNKDGNGDLKGIQDKLDYITALNIKTVWITSFYKSSLKDFRYGVEDFREVDPIFGTMEDFENLVAAIHDKGLKLIIDFIPNHTSDKHIWFQLSRTRTGKYTDYYIWHDCTHENGKTIPPNNWLSVYGNSSWHFDEVRNQCYFHQFMKEQPDLNFRNPDVQEEIKEILRFWLTKGVDGFSLDAVKFLLEAKHLRDEIQVNKTQIPDTVTQYSELYHDFTTTQVGMHDIVRSFRQTMDQYSTEPGRYRFMGTEAYAESIDRTVMYYGLPFIQEADFPFNNYLSMLDTVSGNSVYEVITSWMENMPEGKWPNWMIGGPDSSRLTSRLGNQYVNVMNMLLFTLPGTPITYYGEEIGMGNIVAANLNESYDINTLRSKSPMQWDNSSNAGFSEASNTWLPTNSDYHTVNVDVQKTQPRSALKLYQDLSLLHANELLLNRGWFCHLRNDSHYVVYTRELDGIDRIFIVVLNFGESTLLNLHNMISGLPAKMRIRLSTNSADKGSKVDTSGIFLDKGEGLIFEHNTKNLLHRQTAFRDRCFVSNRACYSSVLNILYTSC | – | stoichiometry N [2]: 2 |
| SLC7A11-SLC3A2 complex (Homo sapiens) (protein) MVRKPVVSTISKGGYLQGNVNGRLPSLGNKEPPGQEKVQLKRKVTLLRGVSIIIGTIIGAGIFISPKGVLQNTGSVGMSLTIWTVCGVLSLFGALSYAELGTTIKKSGGHYTYILEVFGPLPAFVRVWVELLIIRPAATAVISLAFGRYILEPFFIQCEIPELAIKLITAVGITVVMVLNSMSVSWSARIQIFLTFCKLTAILIIIVPGVMQLIKGQTQNFKDAFSGRDSSITRLPLAFYYGMYAYAGWFYLNFVTEEVENPEKTIPLAICISMAIVTIGYVLTNVAYFTTINAEELLLSNAVAVTFSERLLGNFSLAVPIFVALSCFGSMNGGVFAVSRLFYVASREGHLPEILSMIHVRKHTPLPAVIVLHPLTMIMLFSGDLDSLLNFLSFARWLFIGLAVAGLIYLRYKCPDMHRPFKVPLFIPALFSFTCLFMVALSLYSDPFSTGIGFVITLTGVPAYYLFIIWDKKPRWFRIMSEKITRTLQIILEVVPEEDKL | 67.57 ± 21.95 µmol/L | – |
| SLC7A9-SLC3A1 complex (Homo sapiens) (protein) MGDTGLRKRREDEKSIQSQEPKTTSLQKELGLISGISIIVGTIIGSGIFVSPKSVLSNTEAVGPCLIIWAACGVLATLGALCFAELGTMITKSGGEYPYLMEAYGPIPAYLFSWASLIVIKPTSFAIICLSFSEYVCAPFYVGCKPPQIVVKCLAAAAILFISTVNSLSVRLGSYVQNIFTAAKLVIVAIIIISGLVLLAQGNTKNFDNSFEGAQLSVGAISLAFYNGLWAYDGWNQLNYITEELRNPYRNLPLAIIIGIPLVTACYILMNVSYFTVMTATELLQSQAVAVTFGDRVLYPASWIVPLFVAFSTIGAANGTCFTAGRLIYVAGREGHMLKVLSYISVRRLTPAPAIIFYGIIATIYIIPGDINSLVNYFSFAAWLFYGLTILGLIVMRFTRKELERPIKVPVVIPVLMTLISVFLVLAPIISKPTWEYLYCVLFILSGLLFYFLFVHYKFGWAQKISKPITMHLQMLMEVVPPEEDPE | 276.9 ± 107.6 µmol/L | – |
